{
  "source": "paper PMC12085566",
  "target": "BG505 SOSIP.664 Env trimer (HIV-1 (isolate BG505))",
  "assay": "cryo-EM structure",
  "data": [
    {"substance": "4-domain CD4 (receptor)", "values": [
      {"measurement": "stoichiometry N (molecules per Env)", "result": 3}
    ]}
  ]
}
